Laboratory results reported in the Human Domainome abundance scans (Beltran et al. 2025).

B1: Protein piccolo, residues 1058 to 1114; numbered along this chain, Q9Y6V0 (parent)
chain: TCPLCKTELNIGSKDPPNFNTCTECKNQVCNLCGFNPTPHLTEIQEWLCLNCQTQRA

Variants of: B1
Assay: abundance fitness (aPCA) (normalised: wild type 0, dead -1); higher = more abundant; growth selection in yeast, the domain comes from the species named
Details: Homo sapiens

Abundance fitness, by site and new letter:
T42: D -0.015, C 0.064, W -0.166, M -0.253, V 0.073, H 0.123, N 0.097, Y -0.301
V29: G -0.198, L -0.284, Q -0.212, P -0.545, T -0.118, R -0.148, K -0.326, I -0.241, N -0.199, A -0.064
T1: V -0.202, K -0.424, L -0.078, M -0.031
C52: D -0.755, T -0.842, F -1.06, K -0.801, A -0.85
P3: Y -0.142, F -0.216, E -0.32, K -0.248, I -0.073, G -0.137, R -0.175, Q -0.506
C2: A -1.3, I -1.23, Y -1.15, S -0.687, R -0.991, F -1.11
L4: P -0.693, G 0.067, W -0.576, R -0.054, I -0.048
P39: C -0.115, I -0.013, T -0.005, G -0.211, K 0.193, Y -0.131, A 0.018, H -0.393, S 0.069, R 0.008
E46: D -0.415, F -0.363, R -0.085, Q 0.007, A -0.176, G -0.042, C -0.292
N27: R 0.106, F -0.424, C 0.169, V 0.163, G 0.138, K -0.03, Q 0.112, H -0.024
G12: P 0.027, H -0.182, I 0.154, C 0.077, E 0.092, T 0.035
P16: M -0.09, F 0.024, E -0.187, Q -0.094, H 0.009, C -0.045, W -0.541, K -0.248
I44: V -0.014, N -0.144, Q 0.074, A -0.022, D -0.38
N20: Y -0.337, Q 0.094, S -0.082, I -0.115, V 0.07
L41: F 0.149, E -0.015, W -0.133, A 0.117, D 0.004, H -0.247, Q 0.007, S 0.033, T 0.109, Y 0.081
E24: F -0.269, L -0.363, H -0.058
E8: H -0.479
L32: R 0.175, D -0.032, K 0.172
K14: E -0.226, Y -0.554, Q -0.092, N -0.016, S -0.126, G 0.021, P -0.116, M -0.128, W -0.525
I11: L -0.22, R -0.112, P 0.11, Y 0.086
T23: A 0.097, M 0.062, L -0.163, P -0.126, V 0.067, E -0.043, Q -0.36, K -0.031
K6: D -0.298, A -0.097, N 0.071
C25: S -0.671, Y -0.651, N -0.66, L -0.846, D -0.834, K -0.808
L50: Y -0.239, P 0.329, V 0.102, R 0.182
T54: P 0.156, A 0.049, M -0.602
G34: S -0.106, D -0.075, I -0.885, L 0.043
F35: E 0.275, G 0.175, H 0.275, S 0.236, D 0.218, C 0.019, V 0.108, Y 0.022
L9: F 0.007, T -0.081, N -0.174, S -0.042, G -0.047, Y -0.181, Q -0.128, R -0.156, M 0.145
D15: K -0.014, N 0.02, I 0.01, F 0.003, V 0.001, A -0.138, G -0.124, L 0.015, M -0.053, R -0.257, T -0.013, E -0.248
Q53: L -0.386, K 0.115, A -0.249, D 0.099, M -0.36, W -0.383
T21: S 0.083, A 0.004, W 0.106, K 0.198, Y 0.135, H 0.013
F19: N 0.04, H -0.022, Y 0.032, L -0.151, R -0.263, S -0.277, M 0.181
C30: Y -1.03, I -0.887, M -0.734, F -0.991, S -0.429, P -0.807, W -1, A -0.562
P37: E 0.138, R 0.032, T 0.079, K -0.054
C5: E -0.812, A -0.844, W -0.96, P -1.01, D -0.606, L -1.17, K -0.63, H -0.142
P17: Q -0.114, D -0.122, I -0.448, L -0.084, K 0.127, S -0.175, R -0.106
Q28: I -0.579, G 0.038, C 0.018, K -0.265, A 0.09, R 0.004, P -0.099, W -0.115
C33: Q -0.623, F -0.92, L -0.819, T -0.952, N -0.641, E -0.349, D -0.336, I -0.933
H40: E -0.065, P 0.085, C 0.046
W47: Y -0.493, P -0.039, I -0.049, G 0.056, T -0.195
T7: E 0.094, I -0.31, A -0.063, Q 0.019, F -0.342, G -0.011, N -0.007, W -0.797, C -0.56, K 0.043
N51: K -0.063, V -0.326, M -0.557
C22: Y -0.899, A -0.647, D -0.817, K -0.818, T -0.736, S -0.611
N18: Y -0.094, W -0.346, S -0.128, R -0.079, E -0.104, C -0.219, M -0.842, F -0.199
N36: E 0.099, C -0.054, Q -0.011, M 0.033, H 0.313, I -0.129
E43: S -0.2, M -0.191, A -0.048, Y -0.443, I -0.301, L -0.398, F -0.289
L48: A -0.051, E -0.131, N -0.063, G -0.355, Q -0.274, M -0.312
K26: T 0.195, D 0.071, P -0.148, L 0.103, F -0.025, W -0.022, M 0.335
Q45: R -0.003, H -0.357, I -0.047, S -0.037, G 0.037, W 0.233, E -0.38
C49: V -0.849, G -0.934, W -0.884, N -0.618, Q -0.927
N10: Q -0.005, A 0.041, F -0.103, D -0.245
S13: Y -0.227, V -0.456, I -0.21, R -0.264, M 0.012, A -0.37, L -0.23, D -0.463, K 0.209
N31: T -0.173, S 0.056, W -0.19, C 0.093
